Assay results as given in the supplement of paper PMC10567573.

B1: PTPLAD1 (parent)
chain: YSFYMLTCIDMDWKVLTWLRYTLW

Variants of: B1
Assay: protein stability index of a GFP-peptide fusion (GPS, HEK-293T) (PSI 1-6); higher = more stable
Settings: c terminus: a fixed tail appended
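Note: lentivirally expressed fusions sorted by FACS into six bins by GFP to DsRed ratio, PSI derived from sequencing read proportions per bin multiplied by bin number.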

Protein stability index, by site and new letter:
L6: Y 3.68
L16: W 3.38 | P 2.32 | D 3.41 | F 3.23 | E 2.06 | V 1.5 | R 2.13 | A 3.49 | N 4.69 | Q 2.4 | I 1.75 | Y 1.59
V15: R 1.61 | Y 3.09 | C 3.85 | I 4.29 | K 3.92 | M 1.03 | W 2.22 | N 2.59 | T 2.91 | Q 2.69 | E 1.86 | L 1.89
W13: P 3.04 | L 2.72 | V 3.87 | D 1.74 | N 4.03 | I 3.42 | A 2.71 | R 2.4 | G 3.3 | K 2.71 | Y 4.08 | H 2.36 | F 2.73 | M 1.66 | E 2.56
C8: W 2.54 | G 3.31 | E 2.25 | S 2.62 | Q 3.01 | D 2 | R 1.42 | N 2.97 | I 3.23 | L 2.85 | H 2.1 | F 2.48 | M 1.73 | P 1.7 | A 2.9 | T 2.51 | K 3.09
W18: A 2.61 | F 3.34 | M 1.84 | I 3.65 | K 3.24 | D 1.68 | H 4.4 | Q 2.11
T7: M 2.02 | D 2.73 | P 2.94 | Q 3.88 | N 2.85 | V 1.27 | S 2.16 | R 2.4 | Y 3.62 | G 1.4 | I 2.86 | E 3.27 | A 2.65 | K 2.49 | H 3.17 | F 3.29 | L 2.43
M11: I 2.67 | D 1.56 | A 3.31 | K 3.05 | C 3.43 | V 2.87 | P 2.49 | W 2.13 | H 1.6 | L 3.18 | F 2.15 | N 1.86 | T 1.21 | Y 3.68 | R 2.86 | E 2.15
D10: A 3.85 | E 2.65 | V 3.62 | Q 3.51 | G 4.97 | R 3.09 | I 2.96 | F 3.86 | L 1.38 | P 1.95 | N 2.6 | T 2.76
I9: F 2.17 | P 2.05 | H 1.65 | C 1.58 | Q 2.85 | W 1.96 | A 2.07 | N 2.78 | Y 1.74 | M 2.6 | D 2.78 | K 1.66 | R 2.45 | T 1.25 | G 2.4
K14: P 3.03 | L 3.3 | Q 2.03 | W 2.45 | F 1.85 | Y 2.61 | D 2.16 | I 2.92 | A 2.96 | T 3.16 | M 1.28 | N 3.02 | R 2.34 | H 2.97
T17: I 2.68 | Y 1.8 | F 3.31 | Q 2.82 | R 3.47 | H 2.63 | V 2.23 | W 2.66 | C 1.67 | D 2.45 | E 2.15
D12: K 3.14 | T 1.91 | N 2.65 | F 2.23 | V 1.79 | Y 1.95 | E 2.68 | C 1.65 | A 1.63 | H 1.75 | P 1.94 | L 2.09 | M 1.51 | W 1.82 | I 1.82 | G 2.15 | R 2.18
